Results reported in publication PMC6104973.

Assays:
ALX148 (human) = experiment: SPR; hFcRn flowed (0-5000 nM) over ALX proteins captured on a GLC chip with immobilised human CD47 ECD; 25°C; PBS pH 5.8, 0.01% Tween-20; equilibrium analysis; apparent
CD47 (Homo sapiens) = CD47 (Homo sapiens) (UniProt Q08722); settings: cited from earlier work
Sequence of UniProt Q08722 (Q08722 19-323): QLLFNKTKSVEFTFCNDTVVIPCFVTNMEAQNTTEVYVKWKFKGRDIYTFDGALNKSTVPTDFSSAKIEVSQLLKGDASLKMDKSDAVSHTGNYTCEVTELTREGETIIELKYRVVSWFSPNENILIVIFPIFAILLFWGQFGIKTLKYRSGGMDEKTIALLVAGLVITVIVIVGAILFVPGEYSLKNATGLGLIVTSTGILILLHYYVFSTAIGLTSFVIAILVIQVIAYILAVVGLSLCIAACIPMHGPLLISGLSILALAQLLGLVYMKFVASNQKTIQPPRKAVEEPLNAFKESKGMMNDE

| Substance | Kd (ALX148 (human)) | Kd (CD47 (Homo sapiens)) |
| --- | --- | --- |
| human neonatal Fc receptor (FcRn) (from UniProt P55899 24-297) | 580 nM |  |
| SIRPα (from UniProt P78324) |  | 1000 nM |
